Target: T1, Epithelial membrane protein 2 (EMP2), human, P54851
T1 chain: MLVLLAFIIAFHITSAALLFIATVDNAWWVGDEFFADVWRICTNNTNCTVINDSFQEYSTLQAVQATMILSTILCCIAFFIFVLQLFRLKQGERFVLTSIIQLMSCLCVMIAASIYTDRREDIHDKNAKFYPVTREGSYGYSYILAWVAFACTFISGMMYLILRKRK

B1: Focal adhesion kinase (FAK), human (protein)
chain: AAAYLDPNLNHTPNSSTKTHLGTGMERSPGAMERVLKVFHYFESNSEPTTWASIIRHGDATDVRGIIQKIVDSHKVKHVACYGFRLSHLRSEEVHWLHVDMGVSSVREKYELAHPPEEWKYELRIRYLPKGFLNQFTEDKPTLNFFYQQVKSDYMLEIADQVDQEIALKLGCLEIRRSYWEMRGNALEKKSNYEVLEKDVGLKRFFPKSLLDSVKAKTLRKLIQQTFRQFANLNREESILKFFEILSPVYRFDKECFKCALGSSWIISVELAIGPEEGISYLTDKGCNPTHLADFTQVQTIQYSNSEDKDRKGMLQLKIAGAPEPLTVTAPSLTIAENMADLIDGYCRLVNGTSQSFIIRPQKEGERALPSIPKLANSEKQGMRTHAVSVSETDDYAEIIDEEDTYTMPSTRDYEIQRERIELGRCIGEGQFGDVHQGIYMSPENPALAVAIKTCKNCTSDSVREKFLQEALTMRQFDHPHIVKLIGVITENPVWIIMELCTLGELRSFLQVRKYSLDLASLILYAYQLSTALAYLESKRFVHRDIAARNVLVSSNDCVKLGDFGLSRYMEDSTYYKASKGKLPIKWMAPESINFRRFTSASDVWMFGVCMWEILMHGVKPFQGVKNNDVIGRIENGERLPMPPNCPPTLYSLMTKCWAYDPSRRPRFTELKAQLSTILEEEKAQQEERMRMESRRQATVSWDSGGSDEAPPKPSRPGYPSPRSSEGFYPSPQHMVQTNHYQVSGYPGSHGITAMAGSIYPGQASLLDQTDSWNHRPQEIAMWQPNVEDSTVLDLRGIGQVLPTHLMEERLIRQQQEMEEDQRWLEKEERFLKPDVRLSRGSIDREDGSLQGPIGNQHIYQPVGKPDPAAPPKKPPRPGAPGHLGSLASLSSPADSYNEGVKLQPQEISPPPTANLDRSNDKVYENVTGLVKAVIEMSSKIQPAPPEEYVPMVKEVGLALRTLLATVDETIPLLPASTHREIEMAQKLLNSDLGELINKMKLAQQYVMTSLQQEYKKQMLTAAHALAVDAKNLLDVIDQARLKMLGQTRPH
  phosphorylation of FAK at Tyr-397, Tyr-407, Tyr-861 and Tyr-925 (quantitative Western blot, ARPE-19/EMP2 against ARPE-19): EMP2 overexpression enhanced phosphorylation of FAK two- to three-fold at Tyr-397, Tyr-407, Tyr-861, and Tyr-925
